The target of the assay is nCBP-2^L51F (yeast two-hybrid fusion) (cassava). As to the kind of experiment: two-hybrid.

The substance “CBSV Naliendele VPg fused to the B42 transcriptional activation domain (natural protein)” showed a fold less reporter activity than with nCBP-2 of 8 fold.

The values are drawn from article doi:10.1101/2025.02.27.640518.
